In patent US20140206846A1 (published 2014):

Columns and labels:
human IL6 = target: T1, human IL6 (human, UniProt P05231 30-212); experiment: Biacore SPR, Fab captured by anti-light chain antibody, IL6 as analyte
T1 construct: Bought recombinant protein
Procedure: Antibody libraries were selected against human VEGF (Peprotech catalogue number 100-20) and human IL6 (Peprotech catalogue number 200-06). Of the isolated parental antibody clones, IL6P and VEGFP were combined into the bi-specific antibody clone VH6L. […] To assess the affinities of parental and bi-specific antibodies, Biacore™ analysis was performed in order to analyze the binding behaviour of IL6P, VH6L and VEGFP. For this, an anti-light chain capture antibody was immobilized onto a CM5 chip using amine-coupling, resulting in 12000 RU. Fab fragments were captured to a level of 400-500 RU and a concentration series of IL6 and VEGF, ranging from 0 to 450 nM, was passed over the chip. As depicted in FIG. 7, clone IL6P binds to IL6, but not to VEGF, clone VEGFP binds to VEGF, but not to IL6, and the combined clone VH6L binds to both IL6 and VEGF.

HEL = target: T2, HEL (UniProt P00698 19-147, biotinylated); experiment: ELISA, biotinylated target (20 nM) on streptavidin plates, Fab in culture supernatant
T2 construct: Control target of the ELISA
Procedure: To test the specificity of antibodies selected from Lib1 and Lib2 libraries against one target and the specificity of bi-specific antibodies designed to bind both targets, Enzyme-linked immunosorbent assays (ELISAs) were performed using standard methods. Briefly, Nunc Maxisorp plates were prepared by coating with Streptavidin dissolved in 1×PBS, binding 20 nM of biotinylated targets (GST, MBP, HEL or VEGF) in PBS-T (0.3% Tween-20 dissolved in 1×PBS) and blocking with 5% skimmed milk powder in PBS-T. Thereafter, 50 μl of E. coli TG1 culture supernatant expressing antibody clones as soluble Fab fragments in microtiter plates were added, followed by detection of bound Fab fragments using goat anti-human kappa light chain polyclonal antibody (Sigma) or mouse anti-Strep tag antibody (IBA) specific for a Strep-Il tag fused to the C-terminus of the heavy chain in the soluble Fab expression construct. Secondary antibodies were detected using HRP-labeled tertiary antibodies, ELISAs were developed using TMB substrate (KPL), and signal was quantified using a Victor plate reader from PerkinElmer set to 450 nm. […] None of the clones bound the control targets HEL or VEGF (FIG. 5). Experiments were performed in duplicate using two independent colonies for each Fab.

T2 sequence (P00698 19-147): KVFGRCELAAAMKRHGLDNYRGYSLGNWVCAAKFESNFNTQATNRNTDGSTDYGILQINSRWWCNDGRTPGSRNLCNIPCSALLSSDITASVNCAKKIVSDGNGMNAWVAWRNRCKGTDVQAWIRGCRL

Binder | Kd (human IL6) [nM] | binding result (HEL)
IL6P (Fab, V domains shown) VH: EVQLVESGGGLVQPGGSLRLSCAASGFTFSSYAMSWIRQAPGKGLEWIGQISGSGGSTVYNYNVLGRFTISRDNSKNTLYLQMNSLRAEDTAVYYCARDSGYFDIWGQGTLVTVSS VL: NIQKTQSPSSLSASVGDRVTITCRALWHISSYLAWYQQKPGKAPKLLIYAASSLYSGVPSRFSGSGSGTDFTLTISSLQPEDFATYYCQQYSGLPYTFGQGTKVEIKR | 38 | 
VH6L (bispecific antibody, V domains shown, Combination of IL6P and VEGFP; two paratopes in one VH-VL pair; tested as Fab fragment; also called bi-specific antibody clone VH6L; combined clone VH6L) VH: YYQLVESGGGLVQPGGSLRLSCAADGFLFSGYAMSWIRQAPGKGLEWIGQISGSGGSTVYNYNVLGRFTISRDNSKNTLYLQMNSLRAEDTAVYYCARDTGYFDHWGQGTLVTVSS VL: NIQKTQSPSSLSASVGDRVTITCRALWHISSYLAWYQQKPGKAPKLLIYAASHLHYGVPSRFSGSGSGTDFTLTISSLQPEDFATYYCQQYSGLPYTFGQGTKVEIK | 40 | 
Dummy 1 Fab (Fab, V domains shown, Tested as soluble Fab in E. coli TG1 culture supernatant; Strep-II tag fused to the C-terminus of the heavy chain) VH: EVQLVESGGGLVQPGGSLRLSCAASGFTFSSYAMSWIRQAPGKGLEWIGQISGSGGSTYYNDNVLGRFTISRDNSKNTLYLQMNSLRAEDTAVYYCARDSGYFDIWGQGTLVTVSS VL: DTQMTQSPSSLSASVGDRVTITCRASQSISSYLAWYQQKPGKAPKLLIYAASSLYSGVPSRFSGSGSGTDFTLTISSLQPEDFATYYCQQYSSLPYTFGQGTKVEIK |  | no binding
